From patent US20220356228A1

B1: 6G5 (antibody, V domains shown)
VH: QVQLVQSGAEVKKPGASVKVSCKASGYTFTNYDIHWVRQAAGQGLEWMGWTNPNSGNSDYAQKFQGRVSMTRDTSMRTMYMELNSLRSEDTAVYFCARKIWVGTTIFDYWGQGTLVTVSS
VL: DIQMTQSPSSLSASVGDRVTIACRASQSIYRFLSWYQQKPGTAPKLLIFAVSSLQSGVPSRFSGSGSGTDFTLTISSLHPEDFAIYYCQQSDSPPLTFGGGTKVGIK
B2: 6H7 (antibody, V domains shown)
VH: QVQLVESGGGLVKPGGSLRLSCAGSGFTFSDHYMSWIRQAPGKGLEWVSYISTSGRTIFYVDSVKGRFTISRDNAKNSLYLQMNSLRAEDMAVYYCASDYYDNVGWNYWGQGALVIVSS
VL: DVVLTQSPLSLPVTLGQPASISCRSSQSLVYSDGNTYLNWFQQRPGQSPRRLIYKVSDRDFGVPDRFSGSGSGTDFTLKISRVEAEDVGIYYCMQGTHWPRTFGQGTKVEIK
B3: 5G5 (antibody, V domains shown)
VH: LVQLVESGGGLVKPGGSLRLSCTASGITFSDLYMSWIRQSPGKGLEWISYISTSGRTIYYTDSVKGRFTISRDNAKNSLFLQMNRLRADDTAVYYCAGDYYDNSGWDYWGRGTLVTVSS
VL: NVVMTQSPLSLPVALGQPASISCRSGQSLVYSDGNTYLNWFQQRPGQSPRRLIYKVSDRDSGVPDRFSGSGSGTDFTLKISRVEAEDVGIYYCMQGTHWPRTFGQGTKVEIK
B4: 8C3 (antibody, V domains shown)
VH: QVQLVESGGGLVKPGGSLRLSCAASGFTFSDHYMSWIRQAPGKGLEWVSYISTSGRTIHYADSVKGRFTISRDNAKNSLYLQMNSLRAEDMAVYYCASDYYDNVGWDYWGQGTLVTVSS
VL: DVVMTQSPLSLPVTLGQPASISCRSSQSLLYSDGNTYLNWFQQRPGQSPRRLIYKVSDRDSGVPDRFSGSGSGTDFTLKISRVEADDVGVYYCMQGAHWPRTFGQGTKVEIK

The binders below were run against JCV major capsid protein VP1, wild type (John Cunningham virus (JCV)) (UniProt P03089) (assay: cell-based or functional assay).
JCV major capsid protein VP1, wild type (John Cunningham virus (JCV)), sequence (P03089 whole entry): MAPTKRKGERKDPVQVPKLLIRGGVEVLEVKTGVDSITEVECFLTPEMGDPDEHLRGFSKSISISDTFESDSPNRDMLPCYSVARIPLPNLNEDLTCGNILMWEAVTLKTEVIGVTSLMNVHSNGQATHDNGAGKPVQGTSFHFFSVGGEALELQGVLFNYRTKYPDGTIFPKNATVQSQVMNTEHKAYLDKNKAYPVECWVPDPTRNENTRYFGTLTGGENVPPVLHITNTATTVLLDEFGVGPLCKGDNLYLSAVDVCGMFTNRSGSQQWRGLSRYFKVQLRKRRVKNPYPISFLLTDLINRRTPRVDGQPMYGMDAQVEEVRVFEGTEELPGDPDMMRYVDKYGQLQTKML

First: B1
Second: B2
The Neutralization of WT JCV: EC50 [pM] of the first is higher: 3.1 pM for the first, 0.5 pM for the second.

Compared with B3, B4 is higher in Neutralization of WT JCV: EC50 [pM]: 0.4 pM for the first, 14 pM for the second.
